The record followed here is US20150291681A1 (published 2015).

Test [1] concerns the target T1, EGFP labeled Notch (Drosophila Notch stably expressed on S2 cells) (Drosophila, UniProt P07207 53-2703).
T1 construct: whole, on cells; how EGFP is joined to Notch is not described; also called Notch+EGFP; N+EGFP; not shown: EGFP label
Kind of test: S2 cell aggregation; Sertom DNA transfected into Notch-EGFP cells (cis), competitor of Sertom cells (trans). On the procedure: Stable lines of EGFP-labeled Notch cells were added to stable lines of tomato tagged Ser-expressing cells, allowed to mix for 24 hours at room temperature and were assayed for the formation of interacting cellular aggregates (Fehon et al., 1990, Cell 3:523-534). The Notch expressing cells were transiently transfected with tomato-tagged Ser DNA at concentrations ranging between 0.0 μg and 2.0 μg prior to mixing with Ser expressing cells to induce cis-inhibition by co-expressed Ser with Notch. When performed with wild type Ser DNA (A of this figure), effective inhibition of aggregation occurs in a dose dependent manner when the Ser expressing cells (Ser labeled columns) are mixed with the transfected Notch cells. When Ser expressing cells are not mixed with the transfected Notch cells (S2R+), self-aggregate formation is minimal.
S2 cells stably expressing tomato-tagged Ser (Sertom) were mixed with S2 cells stably expressing EGFP labeled Notch and allowed to aggregate with one another to determine baseline levels of Notch-Ser interactions (FIG. 6). Subsequent experiments transiently transfected the stable Notch EGFP line with either Sertom (wild type), SerDel6tom or SerDel3tom transgenes at varying concentrations to promote cis-inhibition within the Notch-expressing cells. […]

Test [2] concerns the target T2, endogenous Drosophila Notch (wing imaginal disc) (Drosophila, UniProt P07207 53-2703).
T2 construct: whole, on cells; also called Notch receptor
Kind of test: summing-up sentence; inferred from trans-activation in wing discs and aggregation assays. The procedure:
To define potential inhibitory domains in the extracellular domain of the Notch ligands, a systematic deletion analysis of an extracellular region of the Drosophila Notch ligand Ser was performed. Ser has 14 ELRs in its extracellular domain (FIG. 4) and has been the ligand best explored for its inhibitory properties (Klein et al., 1997, Dev. Biol. 1:123-134; Li and Baker, 2004, BMC Dev. Biol. 5). […] Using the Gal4ptc promoter, the influence of ectopic Ser expression on Notch activity was measured by examining how it affects the expression of CUT, a transcriptional target of Notch signals and is a classic indicator of Notch activity in the dorsal/ventral boundary and ventral region of the wing disc (Doherty et al., 1996, Genes Dev. 4:421-434).
Ser constructs were expressed in the third instar imaginal wing disc via the ptc promoter using the Gal4 system (Brand and Perrimon, 1993, Development 2:401-415). Notch activity was assessed by examination of CUT expression induced in response to Notch activity (Neumann and Cohen, 1996, Development 11:3477-3485). […]

T2 sequence (P07207 53-2703): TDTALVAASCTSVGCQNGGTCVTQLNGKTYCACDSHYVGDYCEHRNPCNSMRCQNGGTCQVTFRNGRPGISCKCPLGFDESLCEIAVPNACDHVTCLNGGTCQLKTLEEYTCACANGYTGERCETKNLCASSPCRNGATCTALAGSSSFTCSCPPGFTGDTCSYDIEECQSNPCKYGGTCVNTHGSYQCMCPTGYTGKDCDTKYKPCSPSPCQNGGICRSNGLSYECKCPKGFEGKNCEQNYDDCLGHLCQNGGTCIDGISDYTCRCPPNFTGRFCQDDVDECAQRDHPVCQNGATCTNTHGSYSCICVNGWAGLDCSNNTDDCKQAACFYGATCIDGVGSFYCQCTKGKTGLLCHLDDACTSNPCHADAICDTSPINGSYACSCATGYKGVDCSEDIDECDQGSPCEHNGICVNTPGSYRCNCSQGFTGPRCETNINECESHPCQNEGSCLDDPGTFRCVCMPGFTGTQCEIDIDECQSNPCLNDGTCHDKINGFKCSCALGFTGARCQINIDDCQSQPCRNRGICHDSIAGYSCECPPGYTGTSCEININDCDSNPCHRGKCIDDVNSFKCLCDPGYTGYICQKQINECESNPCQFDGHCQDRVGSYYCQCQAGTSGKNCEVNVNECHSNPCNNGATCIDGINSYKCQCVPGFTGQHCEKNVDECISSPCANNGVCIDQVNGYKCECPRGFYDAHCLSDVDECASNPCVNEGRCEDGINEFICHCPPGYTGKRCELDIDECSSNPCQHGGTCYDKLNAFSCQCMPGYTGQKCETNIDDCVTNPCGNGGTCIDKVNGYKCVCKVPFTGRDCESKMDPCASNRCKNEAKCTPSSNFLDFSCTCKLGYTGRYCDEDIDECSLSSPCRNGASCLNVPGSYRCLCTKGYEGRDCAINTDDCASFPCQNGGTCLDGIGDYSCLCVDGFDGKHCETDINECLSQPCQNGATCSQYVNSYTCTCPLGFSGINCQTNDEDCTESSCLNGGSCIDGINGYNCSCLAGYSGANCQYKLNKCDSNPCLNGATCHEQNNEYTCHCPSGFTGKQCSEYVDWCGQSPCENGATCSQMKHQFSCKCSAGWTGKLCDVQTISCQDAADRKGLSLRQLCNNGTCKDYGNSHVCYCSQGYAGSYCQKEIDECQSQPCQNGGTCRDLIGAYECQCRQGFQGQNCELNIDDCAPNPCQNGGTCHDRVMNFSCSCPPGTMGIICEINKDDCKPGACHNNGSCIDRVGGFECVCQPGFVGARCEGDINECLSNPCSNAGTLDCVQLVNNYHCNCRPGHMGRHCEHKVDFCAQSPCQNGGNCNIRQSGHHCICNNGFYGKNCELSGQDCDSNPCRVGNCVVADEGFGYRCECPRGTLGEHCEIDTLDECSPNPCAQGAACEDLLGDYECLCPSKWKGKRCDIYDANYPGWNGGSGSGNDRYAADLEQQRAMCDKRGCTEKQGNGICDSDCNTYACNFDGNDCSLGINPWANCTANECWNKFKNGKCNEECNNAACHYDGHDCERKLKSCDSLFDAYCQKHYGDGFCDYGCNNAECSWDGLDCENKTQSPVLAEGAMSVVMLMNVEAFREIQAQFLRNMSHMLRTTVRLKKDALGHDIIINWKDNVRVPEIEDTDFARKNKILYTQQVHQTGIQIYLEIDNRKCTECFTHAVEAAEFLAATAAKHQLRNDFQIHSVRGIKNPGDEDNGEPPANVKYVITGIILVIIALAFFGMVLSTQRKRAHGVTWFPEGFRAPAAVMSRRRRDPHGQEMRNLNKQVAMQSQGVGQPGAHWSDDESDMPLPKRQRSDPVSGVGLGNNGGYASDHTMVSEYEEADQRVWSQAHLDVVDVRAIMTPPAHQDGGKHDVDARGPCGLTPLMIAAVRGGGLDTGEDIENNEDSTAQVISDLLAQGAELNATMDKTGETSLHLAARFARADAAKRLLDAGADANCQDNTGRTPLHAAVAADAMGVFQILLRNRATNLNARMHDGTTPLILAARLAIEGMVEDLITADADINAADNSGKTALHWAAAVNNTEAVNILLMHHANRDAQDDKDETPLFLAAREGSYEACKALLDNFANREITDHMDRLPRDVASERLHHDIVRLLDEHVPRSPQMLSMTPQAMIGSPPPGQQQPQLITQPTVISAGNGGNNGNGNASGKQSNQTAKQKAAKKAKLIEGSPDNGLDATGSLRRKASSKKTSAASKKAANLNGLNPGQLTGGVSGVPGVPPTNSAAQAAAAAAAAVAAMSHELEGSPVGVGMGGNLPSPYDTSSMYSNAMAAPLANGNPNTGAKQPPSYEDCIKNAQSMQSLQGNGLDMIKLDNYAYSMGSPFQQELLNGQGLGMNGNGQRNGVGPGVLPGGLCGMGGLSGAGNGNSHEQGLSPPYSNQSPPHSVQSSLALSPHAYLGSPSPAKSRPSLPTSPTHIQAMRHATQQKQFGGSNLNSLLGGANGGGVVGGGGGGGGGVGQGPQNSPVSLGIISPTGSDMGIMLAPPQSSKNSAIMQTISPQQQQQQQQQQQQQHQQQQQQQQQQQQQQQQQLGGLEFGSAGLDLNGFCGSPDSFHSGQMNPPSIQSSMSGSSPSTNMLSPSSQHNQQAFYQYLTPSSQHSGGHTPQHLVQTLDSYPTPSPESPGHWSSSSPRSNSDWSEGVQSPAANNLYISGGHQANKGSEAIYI
T1 sequence (P07207 53-2703): as above

B1: tomato-tagged Ser (Sertom), wild type Drosophila Serrate (ligand)
chain: GNFELEILEISNTNSHLLNGYCCGMPAELRATKTIGCSPCTTAFRLCLKEYQTTEQGASISTGCSFGNATTKILGGSSFVLSDPGVGAIVLPFTFRWTKSFTLILQALDMYNTSYPDAERLIEETSYSGVILPSPEWKTLDHIGRNARITYRVRVQCAVTYYNTTCTTFCRPRDDQFGHYACGSEGQKLCLNGWQGVNCEEAICKAGCDPVHGKCDRPGECECRPGWRGPLCNECMVYPGCKHGSCNGSAWKCVCDTNWGGILCDQDLNFCGTHEPCKHGGTCENTAPDKYRCTCAEGLSGEQCEIVEHPCATRPCRNGGTCTLKTSNRTQAQVYRTSHGRSNMGRPVRRSSSMRSLDHLRPEGQALNGSSSSGLVSLGSLQLQQQLAPDFTCDCAAGWTGPTCEINIDECAGGPCEHGGTCIDLIGGFRCECPPEWHGDVCQVDVNECEAPHSAGIAANALLTTTATAIIGSNLSSTALLAALTSAVASTSLAIGPCINAKECRNQPGSFACICKEGWGGVTCAENLDDCVGQCRNGATCIDLVNDYRCACASGFTGRDCETDIDECATSPCRNGGECVDMVGKFNCICPLGYSGSLCEEAKENCTPSPCLEGHCLNTPEGYYCHCPPDRAGKHCEQLRPLCSQPPCNEGCFANVSLATSATTTTTTTTTATTTRKMAKPSGLPCSGHGSCEMSDVGTFCKCHVGHTGTFCEHNLNECSPNPCRNGGICLDGDGDFTCECMSGWTGKRCSERATGCYAGQCQNGGTCMPGAPDKALQPHCRCAPGWTGLFCAEAIDQCRGQPCHNGGTCESGAGWFRCVCAQGFSGPDCRINVNECSPQPCQGGATCIDGIGGYSCICPPGRHGLRCEILLSDPKSACQNASNTISPYTALNRSQNWLDIALTGRTEDDENCNACVCENGTSRCTNLWCGLPNCYKVDPLSKSSNLSGVCKQHEVCVPALSETCLSSPCNVRGDCRALEPSRRVAPPRLPAKSSCWPNQAVVNENCARLTILLALERVGKGASVEGLCSLVRVLLAAQLIKKPASTFGQDPGMLMVLCDLKTGTNDTVELTVSSSKLNDPQLPVAVGLLGELLSSRQLNGIQRRKELELQHAKLAALTSIVEVKLETARVADGSGHSLLIGVLCGVFIVLVGFSVFISLYWKQRLAYRTSSGMNLTPSLDALRHEEEKSNNLQNEENLRRYTNPLKGSTSSLRAATGMELSLNPAPELAASAASSSALHRSQPLFPPCDFERELDSSTGLKQAHKRSSQILLHKTQNSDMRKNTVGSLDSPRKDFGKRSINCKSMPPSSGDEGSDVLATTVMV
notes: The tomato tag is an internal insertion in the intracellular domain; also called Ser+Tomato; Ser Bsp tom; not shown: fluorescent tomato tag (Shaner et al., 2004), INSERTED within the intracellular domain at the Bsp EI site of the Ser cDN
With B1, the binding result in test [1] is “binds”.

B2: wild type Drosophila Serrate (Ser), UAS-Ser transgene (ligand)
chain: B1 chain
notes: also called wild type Ser
For the molecule B2, the binding result in test [2] was “binds”.
